Assays:
IL-6 = IL-6 (Homo sapiens, UniProt P05231); assay: Inhibition of IL-6/sIL-6R/IL-1β induced SAA production from A498 cell line, SAA ELISA; assay type: cell-based; conditions: A498 cells; IL-6 (100 ng/ml), sIL-6R (200 ng/ml) and IL-1b (1 ng/ml) pre-incubated with serial dilutions of antibody; dose dependent (FIG. 2A & B)
Text: (§1) A-498, a renal carcinoma cell line was purchased from ATCC (Rockville, Md.). Cells were maintained according to ATCC instructions in log phase of cell growth in DMEM/10% heat-inactivated FBS, 1% L-Gut, 1% NEAA and 1% NaPyr. CNTO 328, an anti-human IL-6 antibody developed at Centocor and disclosed in U.S. patent application Ser. No. 10/280,716, hereby incorporated by reference into the present application, was used at several concentrations in the assay. F 105, human anti-gp 120 IgGl, also developed at Centocor, was used as a negative control antibody. Anti-SAA monoclonal antibody (clone REU-86.2, Research Diagnostics, Inc.) was used for SAA immunostaining.
(§2) A498 cells were cultured for 24 hrs in 96-well flat bottom tissue culture plates at a concentration of 6×10^4 cells/100 ul in DMEM complete media at 37 °C./5% CO2. Cells were washed with PBS then starved for 1 hr in 100 ul of serum free DMEM media at room temp. A combination of IL-6 (100 ng/ml), sIL-6R (200 ng /ml) and IL-1b (1 ng/ml) mixture was incubated with serial dilutions of CNTO 328 or F105 control antibody for 30 minutes at room temperature. 100 ul of the mixture was added to the cells and incubated at 37 °C./5% CO2 overnight.
(§3) The cell culture supernatant was assayed immediately for hSAA production using Biosource human SAA kit (Camrillo, Calif.) following manufacturer's instructions.

A498 cells = assay: Induction of SAA production in A498 renal carcinoma cells by cytokines, SAA ELISA of culture supernatant; assay type: cell-based; conditions: human renal tumor A498 cells stimulated overnight with the cytokine(s); SAA in culture supernatant by ELISA (FIG. 2A)
Text: as §1, §2, §3

Sequence of IL-6 (P05231 30-212): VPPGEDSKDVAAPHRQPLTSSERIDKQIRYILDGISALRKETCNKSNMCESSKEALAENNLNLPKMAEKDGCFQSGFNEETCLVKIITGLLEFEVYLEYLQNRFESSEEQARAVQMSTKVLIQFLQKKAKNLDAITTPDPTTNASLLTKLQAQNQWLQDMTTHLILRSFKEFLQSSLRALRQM

inhibition of IL-6/sIL-6R/IL-1β induced SAA production (IL-6)	Substance	SAA produced in culture (A498 cells) [ng/mL]
completely inhibited	CNTO 328: an anti-human IL-6 antibody developed at Centocor and disclosed in U.S. patent application Ser. No. 10/280,716	
	IL-1b: cytokine used to stimulate A498 cells	< 100
